Source: PMC8500918

Biological target: Cadherin-11 extracellular domain 1 (EC1), wild type
Test: NMR

Sequence of Cadherin-11 extracellular domain 1 (EC1), wild type (P55288 1-98): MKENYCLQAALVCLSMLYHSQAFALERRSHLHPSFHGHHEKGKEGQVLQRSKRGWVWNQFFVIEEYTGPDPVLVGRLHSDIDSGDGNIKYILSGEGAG

stoichiometry N: 2
Substance: Cadherin-11 extracellular domain 1 (EC1), wild type (domain or fragment)
